Measurements from publication PMC3649978.

Target: EB1 (competitive binding assay, source not named) (UniProt Q61166)
Experiment: competitive binding assay; data not shown; p104_(554–593) as competitor of EB1 binding to recombinant p104

Sequence of UniProt Q61166 (Q61166 whole entry): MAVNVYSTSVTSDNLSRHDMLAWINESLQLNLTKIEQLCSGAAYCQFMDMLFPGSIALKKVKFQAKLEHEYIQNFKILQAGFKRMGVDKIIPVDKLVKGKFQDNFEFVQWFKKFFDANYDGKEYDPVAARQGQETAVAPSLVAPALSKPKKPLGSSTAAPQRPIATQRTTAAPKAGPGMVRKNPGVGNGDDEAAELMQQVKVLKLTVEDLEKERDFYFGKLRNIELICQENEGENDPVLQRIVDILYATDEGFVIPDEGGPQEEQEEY

Q: How did the molar excess for 50% inhibition (fold molar excess) turn out when “p104_(554–593) (soluble 40 aa fragment of p104; recombinant form GFP-p104_(554–593)) (domain or fragment)” was run?
A: The molar excess for 50% inhibition (fold molar excess) was 3.
